Measurements from the supplement of paper PMC12764529.
± gives the half width of the 95% confidence interval.

Assays:
[1] = folding stability dG unfold from trypsin proteolysis; higher = more stable
Summary of the method: (§1)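 Digests were run with trypsin and chymotrypsin at 11 concentrations in threefold dilutions, plus a no-protease condition, on designed mini-proteins in a PA-tagged cDNA display construct. The mini-proteins were under 80 residues, had no cysteine, and were kept only when AlphaFold2 dimer inter-PAE was above 15. After sequencing, Bayesian fitting of the counts gave K50, from which unfolding free energy was derived against a sequence-predicted unfolded-state K50 and a shared folded-state K50, per protease or combined.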

[2] = folding stability dG unfold (combined trypsin and chymotrypsin); higher = more stable
Summary of the method: as §1

[3] = folding stability dG unfold from chymotrypsin proteolysis; higher = more stable
Summary of the method: as §1

Row | Sequence | folding stability dG unfold [1] | folding stability dG unfold [2] | folding stability dG unfold [3]
1 | PPGYRPIEIEIPMKVESIEEAKEEVLNFAHELAEAFPNITDINVEVDKIDPNNGYIFAKITIYVGDKTITIS [r1_52_TrROS] | 0.424 ± 0.13 kcal/mol | 1.8 ± 0.43 kcal/mol | 2.04 ± 0.081 kcal/mol
2 | PPLKIKMERYPNGMMKIDKIEVPNDGSIKLTLKFPNNGRKIERTIPPNAPPGQEKEIWFPFPNGFYRLKIES [r1_43_TrROS] | 0.0375 ± 0.24 kcal/mol | 0.32 ± 0.23 kcal/mol | 0.291 ± 0.26 kcal/mol
3 | PSVVYLVLRRPEGGPVRSFRFPVPDRGEPGFEEVLDLIERVTGVSRGALRKNVRIVPVPETGDVLVVADLSS [r1_285_TrMRF] | 2.052 ± 0.014 kcal/mol | 1.88 ± 0.065 kcal/mol | 1.52 ± 0.058 kcal/mol
4 | PVKVIEIRVEDPEKTAEEILAELRKKLPEEVKELRLFIVTPDGRVREIEPGETLADLLKPGDTVRIVVVERS [r1_56_TrROS_Hall] | 4.81 ± 0.34 kcal/mol | > 6 kcal/mol | 5.66 ± 0.45 kcal/mol
5 | PWVMIPIRVDDPNMTIREIANEVRKALPPGNKNLKISIMWGDGRRYEIDPGETLKDHFPPGDEFHIMVRLPS [r1_56_TrROS] | 1.65 ± 0.02 kcal/mol | 1.55 ± 0.048 kcal/mol | 1.3 ± 0.086 kcal/mol
6 | QEIPIKELIKEALENGRPIVFPNGMEITDINPDGSITVKMPYYNPDDPGQPVQPVEMQIKIDEDGRIEVEFS [r1_284_TrROS] | 0.96 ± 0.12 kcal/mol | 1.45 ± 0.12 kcal/mol | 1.76 ± 0.054 kcal/mol
7 | SAAEKLPDGTIVIKLTEEEYKKLTEEEIEKIKEELKKEYPENVTVEIKPTKAKKIPTEPFEKGEKYNESSAG [r14_312_JUSTAS] | -0.313 ± 0.37 kcal/mol | < -1 kcal/mol | -0.267 ± 0.37 kcal/mol
8 | SAAKKVVTVPLPFLAPENSITPEELVALAVAAFEKLFPGAKIEKFEFNMPVFRLPGDGVIVVVEITDTSSAG [r14_145_TrMRF] | 2.04 ± 0.041 kcal/mol | 2.32 ± 0.088 kcal/mol | 2.411 ± 0.024 kcal/mol
9 | SADALKKILSNIHSVEFDPKWGWVTIHFPNKSKIKKALKEGFPRVEMQEDPDGHMMIRIRVPKLPPGQPSAG [r14_115_TrROS] | 1.82 ± 0.057 kcal/mol | 2.35 ± 0.2 kcal/mol | 2.65 ± 0.043 kcal/mol
10 | SADIKIDVTYRRSPGEGRYTMTVRVELPDGKKLAEIPITMPADDPGMSPRQMREWARPIVKKLAKEGLISAG [r14_120_TrROS] | 0.537 ± 0.12 kcal/mol | 0.889 ± 0.08 kcal/mol | 1.02 ± 0.1 kcal/mol
11 | SADKILVRVVFNLGGPPVELTLEADSPEELVEATIAVIKPLFPDADIREVKLFVYNPNTDEVEEFTLTASAG [r14_54_TrMRF] | 2.44 ± 0.043 kcal/mol | 3.06 ± 0.059 kcal/mol | 3.341 ± 0.021 kcal/mol
12 | SADKVEIEFPMPESGHPFRIVIDKDGKVEIRHPNNGEEYEFKINGKPIRFPPNMSWDDAIDQLKDALKKSAG [r14_561_TrROS] | 0.905 ± 0.075 kcal/mol | 0.897 ± 0.19 kcal/mol | 0.645 ± 0.2 kcal/mol
13 | SADKVMIMFRSPQTFRRILREALKTDKPVYLMFPPKWMDELKELGFPNVKIEPQKNPNGGPYYMFELPVSAG [r14_127_TrROS] | 1.83 ± 0.044 kcal/mol | 1.79 ± 0.18 kcal/mol | 1.75 ± 0.12 kcal/mol
14 | SADLKIDDVTVQHYNDYLYVSAEITFPNGWEITVHWMIDPNGKIIDMMIEIRPPPPPVDEEDQEKAQKKSAG [r14_171_TrROS] | 2.47 ± 0.22 kcal/mol | 3.05 ± 0.25 kcal/mol | 3.35 ± 0.14 kcal/mol
15 | SADNYFIRIKHKLNGKPRERTYPIDSPEEALDAIKDELQPHFPGAPIDKVKIDVFNPNNGEWQEITLKISAG [r14_54_TrROS] | -0.0876 ± 0.11 kcal/mol | 0.256 ± 0.13 kcal/mol | 0.373 ± 0.13 kcal/mol
16 | SADPDEEVTLTLTLPASASPEEVEKVRDEIREAFESLGLEVDVKVEADPETGEVPVTVTLKKEALEKLGSAG [r14_602_TrMRF] | 0.834 ± 0.043 kcal/mol | 1.73 ± 0.18 kcal/mol | 1.91 ± 0.06 kcal/mol
17 | SADPSRGMTLTVETKELPGKGLLLVTITTSGTVEEALAYVEELAKELGAEIEILEVNENTIVVKLKVLKSAG [r14_172_JUSTAS] | 1.97 ± 0.026 kcal/mol | 2.49 ± 0.045 kcal/mol | 2.766 ± 0.014 kcal/mol
18 | SADPVYYKITITLYIKGDSSSTKTFEIVVPAGDVEKAKEEAIKKIKEETGKPILKVETEVTKVPPEELLSAG [r14_104_JUSTAS] | 3.89 ± 0.4 kcal/mol | 4.35 ± 0.17 kcal/mol | 4.35 ± 0.13 kcal/mol
19 | SAEEPSLEELLAAIEEEAEARAREFLERHPDVPPGAVLKVPVTLTYPLRLGDVEYPVTFEAEVDVVVPASAG [r14_486_TrMRF] | 1.74 ± 0.041 kcal/mol | 1.95 ± 0.1 kcal/mol | 2.01 ± 0.086 kcal/mol
20 | SAEEVTVKLELEIKIKVSEEEAKALAEELARALKEAGEVKITVEPVEKDEDGYYRIRVTIEVKIKKEDLSAG [r14_413_TrROS_Hall] | 3.57 ± 0.12 kcal/mol | 4.02 ± 0.095 kcal/mol | 4.24 ± 0.11 kcal/mol
21 | SAEIAELLKELGFEVEVEKVEVKEVEVTVTDENGKKYKVKFVEVKITVKVTNPDGSKRTFSLDELKKLLSAG [r14_578_TrROS_Hall] | 2.84 ± 0.14 kcal/mol | 3.45 ± 0.13 kcal/mol | 3.73 ± 0.11 kcal/mol

Row | Sequence | folding stability dG unfold [1] | folding stability dG unfold [2] | folding stability dG unfold [3]
22 | SAEKLKKILENIEKVEFDEETGEVYITVKSVEEAEKALKELFPDVEIEKDEDGNYRFRIRVEKLPEELLSAG [r14_115_TrROS_Hall] | 3.66 ± 0.12 kcal/mol | 4.4 ± 0.084 kcal/mol | 4.68 ± 0.082 kcal/mol
23 | SAELTIEITVPPGKSVEEVLAEAKALAEELGLEIVEVRVERDENGEVRVTVVIKLPEELTEEQRKALLESAG [r14_110_TrROS_Hall] | 3.06 ± 0.17 kcal/mol | 3.02 ± 0.21 kcal/mol | 2.89 ± 0.13 kcal/mol
24 | SAEPEVEYVVIELEVTIELAPGQEAPTADEIAEALRAALEAAGAEITSVEVEVRDGQVTVRVTIVLPKKASA [r9_1134_TrROS_Hall] | 3.53 ± 0.086 kcal/mol | 3.6 ± 0.16 kcal/mol | 3.51 ± 0.17 kcal/mol
25 | SAEPPWYWIIKIEFPNGKPIVFMMDDPEEARERFEEKLRKEFPDGMKIESIPITPNDMDSPEEALERIKSAG [r14_900_TrROS] | 1.8 ± 0.27 kcal/mol | 1.75 ± 0.48 kcal/mol | 1.62 ± 0.16 kcal/mol
26 | SAETTTETKVEEITLEDKKATINITTYSDGSTEATITIYGNDPKVKEKVKEYIKKKDPNIKITKIETKESAG [r14_611_JUSTAS] | 1.85 ± 0.083 kcal/mol | 2.92 ± 0.093 kcal/mol | 3.25 ± 0.043 kcal/mol
27 | SAETVVIPIEAPEDEILAAIKALIDANPDVKITITYADGEKKEITLPDGTKITIERLPDGTLLITVEKVSAG [r14_807_TrROS_Hall] | 3.19 ± 0.23 kcal/mol | 2.49 ± 0.17 kcal/mol | 1.74 ± 0.066 kcal/mol
28 | SAETVVNVTISRPPPSKYSVTITIQPPTSSTSLPTTTDLPPGAYEELLAALQKAHPNLTFSTVTETSDGSAG [r14_969_JUSTAS] | 0.614 ± 0.03 kcal/mol | 0.828 ± 0.12 kcal/mol | 0.758 ± 0.15 kcal/mol
29 | SAEVEVELVEVNGKLFLVMKVKEKDENGKEREYLVVVEVEFDPETKKLTVKVYVFPSKEEAEEALKKLLSAG [r14_500_TrROS_Hall] | 3.92 ± 0.52 kcal/mol | > 6 kcal/mol | 5.26 ± 0.45 kcal/mol
30 | SAEVRARLEYDPVSGDLVLEVERPLPNGDVIRARVDLVNPVLRVEHLPVRDGVPLPRETELDLPADALVSAG [r14_64_TrMRF] | 0.394 ± 0.084 kcal/mol | 0.766 ± 0.067 kcal/mol | 0.855 ± 0.039 kcal/mol
31 | SAEVTSTFDPSTGILTVTVKLEDPETGKPIPAEEVAAEVEKEYPNSTILSIEPDPEGYVTITVKVPPELVSA [r9_87_JUSTAS] | 1.81 ± 0.075 kcal/mol | 2.79 ± 0.039 kcal/mol | 3.16 ± 0.049 kcal/mol
32 | SAFKIDPNGHIRIMISQDDLKQMSIEEINNLVKELAKAFPPPMKVEIHIMPPPPKPKPPPKRDDDGKPKSAG [r14_312_TrROS] | 1.54 ± 0.053 kcal/mol | 1.1 ± 0.18 kcal/mol | 0.66 ± 0.13 kcal/mol
33 | SAFKILPDGTILIDIGEDEAKKLSIEEIEALVKEIEKLLPKDYKVEIHIIPKKPIPKPPLIPGKDNLIGSAG [r14_312_TrMRF] | 1.94 ± 0.063 kcal/mol | 1.91 ± 0.071 kcal/mol | 1.97 ± 0.041 kcal/mol
34 | SAFRDLAKEIARDAGYPVELVEIEFTNDTWTFMIQMKNDGEPYYFRIEIEWPNPNPGDWRIEIDDVQPPSAG [r14_387_TrROS] | 1.94 ± 0.14 kcal/mol | 2.78 ± 0.28 kcal/mol | 3.09 ± 0.094 kcal/mol
35 | SAGAAPVGARLVKVEPLPGDGPFVLVEVTPPDGKPGFILVPWEFFESGYLKNATAADIAKRFPFAKPASAGG [r19_74_TrMRF] | 0.513 ± 0.019 kcal/mol | 1.49 ± 0.056 kcal/mol | 1.85 ± 0.028 kcal/mol
36 | SAGAATINPNPLTLEIESPDGTKYTVSPEEVQKIKDELEAKGKPPTLEEILNEIKKRFPNWRVSYSPESAGG [r19_46_JUSTAS] | 3.06 ± 0.076 kcal/mol | 3.44 ± 0.058 kcal/mol | 3.59 ± 0.04 kcal/mol
37 | SAGADSVTYDPETNLVVVYRRVGDDVEVLVLEPVPLPVVVVVPVEDAVTRNPELRPLLEQNPDFYLVFPSAG [r5_957_TrMRF] | 1.88 ± 0.036 kcal/mol | 2.13 ± 0.051 kcal/mol | 2.248 ± 0.022 kcal/mol
38 | SAGAKIVSVEKVNGEKKITIKVKKEGDEIVIVFPKKNAKIEKKKNGTIEITIKEGETVIIVLKVKKKKSAGG [r19_227_TrROS_Hall] | 1.82 ± 0.051 kcal/mol | 2.99 ± 0.22 kcal/mol | 3.29 ± 0.082 kcal/mol
39 | SAGALPPDQVVPIPVLVRLSEDDPELREAIERGEVVEFELPGPLRLLAEFEPLPEDLVLVTLYLEVPEGSAG [r5_223_TrMRF] | 1.28 ± 0.052 kcal/mol | 1.98 ± 0.17 kcal/mol | 2.3 ± 0.062 kcal/mol
40 | SAGAMKITMPEDISVSPSGGATVTITVEFPDKDAVYTVPVTFPDVKSVEEVLARAEEVGKEFAEELKKKSAG [r5_940_JUSTAS] | 0.484 ± 0.046 kcal/mol | 0.73 ± 0.099 kcal/mol | 0.872 ± 0.063 kcal/mol
41 | SAGAQPIKLKLVDPNGWEIDDIEIEYSPNGMYMIGIENPDNGRPMHIQYNPDDGKIEIRWPNGKLFEIESAG [r5_809_TrROS] | 0.713 ± 0.041 kcal/mol | 0.841 ± 0.12 kcal/mol | 0.902 ± 0.13 kcal/mol
42 | SAGASVSRPVSADEEFSVTVPPEPVTLEVTVYRPDGSVLSSRTIPVGPNTTVTLNVPDPDWSVSFSPVASAG [r5_797_JUSTAS] | -0.0205 ± 0.2 kcal/mol | 0.232 ± 0.2 kcal/mol | 0.082 ± 0.18 kcal/mol
